# Source: US9266964
# Substitutions are numbered along the chain they refer to.
# B1: M199-A08 (Fab, V domains shown)
# VH: EVQLLESGGGLVQPGGSLRLSCAASGFTFSHYIMMWVRQAPGKGLEWVSGIYSSGGITVYADSVKGRFTISRDNSKNTLYLQMNSLRAEDTAVYYCAYRRIGVPRRDEFDIWGQGTMVTVSS
# VL: DIQMTQSPSTLSASVGDRVTITCRASQSISSWLAWYQQKPGKAPNLLIYKASTLESGVPSRFSGSGSGTEFTLTISSLQPDDFATYYCQQYNTYWTFGQGTKVEIK
# B2: M200-D03 (Fab, V domains shown)
# VH: B1 VH with Y98W, E108S, I111M
# VL: B1 VL
# notes: Tested as Fab; printed HC runs into CH1
# B3: M202-B03 (Fab, V domains shown)
# VH: B1 VH with I101T, E108D
# VL: B1 VL
# notes: as for B2
# B4: M201-A07 (Fab, V domains shown)
# VH: B1 VH with I101T
# VL: B1 VL
# notes: as for B2
# B5: M202-C01 (Fab, V domains shown)
# VH: B1 VH with I101T, R106W, E108D
# VL: B1 VL
# notes: as for B2
# B6: M202-D09 (Fab, V domains shown)
# VH: B1 VH with E108S
# VL: B1 VL
# notes: as for B2
# B7: M202-A12 (Fab, V domains shown)
# VH: B1 VH with R99Q, I101T, E108S, D110N
# VL: B1 VL
# notes: as for B2
# B8: M202-H03 (Fab, V domains shown)
# VH: B1 VH with Y98F, I101T, R106W, E108D
# VL: B1 VL
# notes: Tested as Fab; printed HC runs into CH1; Same CDRs as M202-C01, differs at the residue before HV-CDR3 (F for Y)
# B9: M202-C09 (Fab, V domains shown)
# VH: B1 VH with E108D
# VL: B1 VL
# notes: as for B2
# B10: DX-2922 (antibody, V domains shown)
# VH: EVQLLESGGGLVQPGGSLRLSCAASGFTFSHYLMTWVRQAPGKGLEWVSYISPSGGHTIYADSVKGRFTISRDNSKNTLYLQMNSLRAEDTAVYYCARVARGIAARSRTSYFDYWGQGTLVTVSS
# VL: EIVLTQSPGTLSLSPGERATLSCRTSQFVNSNYLAWYQQKPGQAPRLLIYGASSRATGIPDRFSGSGSGTDFTLTISRLEPEDFAVYYCQQSSRTPWTFGQGTKVEIK
# notes: Germlined IgG produced in CHO cells; only the variable domains are printed; also called X101-A01; 559A-X0101-A01
# B11: X115-B07 (antibody, V domains shown)
# VH: B10 VH with R98M, A100G, R101Q, A104R, A105G, D113A, Y114Q
# VL: B10 VL
# notes: only variable domains given; also called 559A-X115-B07; 559A-X0115-B07
# B12: X115-H06 (antibody, V domains shown)
# VH: B10 VH with R101Q, A104S
# VL: B10 VL
# notes: only variable domains given; also called 559A-X115-H06; 559A-X0115-H06
# B13: X115-D05 (antibody, V domains shown)
# VH: B10 VH with H31D, L33M, T35A, Y50S, S52V, I59H
# VL: B10 VL
# notes: only variable domains given; also called 559A-X115-D05; 559A-X0115-D05
# B14: X115-E09 (antibody, V domains shown)
# VH: B10 VH with R101Q, Y111S, F112V, Y114Q
# VL: B10 VL
# notes: only variable domains given; also called 559A-X115-E09; 559A-X0115-E09
# B15: X115-F02 (Fab, V domains shown)
# VH: B1 VH
# VL: B1 VL with N45K
# notes: also called 559A-X115-F02; 559A-X0115-F02
# B16: X115-G04 (antibody, V domains shown)
# VH: B1 VH with I101T
# VL: B1 VL with N45K
# notes: also called 559A-X115-G04; 559A-X0115-G04
# B17: X115-D01 (antibody, V domains shown)
# VH: EVQLLESGGGLVQPGGSLRLSCAASGFTFSIYSMHWVRQAPGKGLEWVSSIYPSRGMTWYADSVKGRFTISRDNSKNTLYLQMNSLRAEDTAVYYCAYRRTGIPRRDAFDIWGQGTMVTVSS
# VL: B1 VL with N45K
# notes: also called 559A-X115-D01; 559A-X0115-D01
# B18: X115-A03 (antibody, V domains shown)
# VH: B1 VH with Y98W, E108S, I111M
# VL: B1 VL with N45K
# notes: also called 559A-X115-A03; 559A-X0115-A03
# B19: DX-2922 (antibody, V domains shown)
# VH: B10 VH
# VL: B10 VL
# notes: also called X101-A01; 559A-X0101-A01
# B20: X115-B07 (antibody, V domains shown)
# VH: B10 VH with R98M, A100G, R101Q, A104R, A105G, D113A, Y114Q
# VL: B10 VL
# notes: also called 559A-X115-B07; 559A-X0115-B07
# B21: X69-C09 (IgG) (antibody, V domains shown)
# VH: EVQLLESGGGLVQPGGSLRLSCAASGFTFSAYSMIWVRQAPGKGLEWVSYIRPSGGRTTYADSVKGRFTISRDNSKNTLYLQMNSLRAEDTAVYYCARGGLLLWFRELKSNYFDYWGQGTLVTVSS
# VL: DIQMTQSPSSLSAFVGDRVTITCRASQPIDNYLNWYHQKPGKAPKLLIYAASRLQSGVPSRLSGSGFGTDFTLTISSLQPEDFGNYYCQQSYTVPYTFGGGTKVEIR
# notes: Full length human IgG1; printed HC runs into CH1; also called Parental
# B22: X67-C09 (IgG) (antibody, V domains shown)
# VH: B21 VH with F105G
# VL: B21 VL
# notes: printed HC runs into CH1
# B23: X67-E04 (IgG) (antibody, V domains shown)
# VH: B21 VH with F105D
# VL: B21 VL
# notes: printed HC runs into CH1
# B24: X67-H04 (IgG) (antibody, V domains shown)
# VH: B21 VH with F105E
# VL: B21 VL
# notes: printed HC runs into CH1; also called 559A-X67-H04
# B25: X67-F01 (IgG) (antibody, V domains shown)
# VH: B21 VH with F105Q
# VL: B21 VL
# notes: printed HC runs into CH1
# B26: X67-C03 (IgG) (antibody, V domains shown)
# VH: B21 VH with F105M
# VL: B21 VL
# notes: printed HC runs into CH1
# B27: X67-B03 (IgG) (antibody, V domains shown)
# VH: B21 VH with F105S
# VL: B21 VL
# notes: printed HC runs into CH1
# B28: X67-F10 (IgG) (antibody, V domains shown)
# VH: B21 VH with F105T
# VL: B21 VL
# notes: printed HC runs into CH1
# Molecular target: T1, human plasma kallikrein (human, UniProt P03952 20-390; P03952 391-638)
# Test: cell-based or functional assay
row,% inhibition at 10 nM [%],Binder
1,96.4,B1
2,95.9,B2
3,93.1,B3
4,95.7,B4
5,96.3,B5
6,95,B6
7,97.5,B7
8,95.7,B8
9,92.3,B9

# Molecular target: T2, wild type pKal catalytic domain (human, UniProt P03952 391-638, limits assumed)
# T2 construct: domain: catalytic domain; The expression in Pichia pastoris with a His tag and IMAC purification is told of the mutants; also called WT cat; Domain; not shown: His tag fusion
# Test: Ki,app: enzyme inhibition, fluorescent substrate, 2 h pre-incubation at 30 C, tight-binding fit
# Experimental: (§1) Apparent Inhibition constants (K_{i,app} values) were measured by pre-incubating enzyme and inhibitor solutions prior to initiating the reactions with substrate. Enzyme and inhibitor were pre-incubated for 2 hours at 30° C. in a 96-well plate by adding 10 μL of a 10× enzyme solution and 10 μL of 10× inhibitor solutions to 70 μL of reaction buffer. Reactions were initiated by the addition of 10 μL of a 10× concentrated stock of substrate, and were monitored at 30° C. in a fluorescence plate reader with the excitation and emission wavelengths set at 360 nm/460 nm, respectively. Kinetic data were acquired by the increase in fluorescence, and initial rates for each condition were plotted against the total inhibitor concentration. The data was fit to the following equation for tight binding inhibitors: […]
row,Ki [nM],Binder
1,0.22,B10

# Molecular target: T3, pKal catalytic domain Mutant 1 (human, UniProt P03952 391-638, limits assumed)
# T3 construct: domain: catalytic domain; Expressed in Pichia pastoris, purified by IMAC; not shown: His tag fusion
# Test: as above
# Experimental: as §1
row,Ki [nM],Binder
1,14,B10
2,4.7,B11

# Molecular target: T4, human plasma kallikrein (full length, active) (human, UniProt P03952 20-390; P03952 391-638)
# T4 construct: two disulfide linked polypeptides; also called Full length pKal; pKal
# T4 sequence (P03952 20-390, chain 1 of 2): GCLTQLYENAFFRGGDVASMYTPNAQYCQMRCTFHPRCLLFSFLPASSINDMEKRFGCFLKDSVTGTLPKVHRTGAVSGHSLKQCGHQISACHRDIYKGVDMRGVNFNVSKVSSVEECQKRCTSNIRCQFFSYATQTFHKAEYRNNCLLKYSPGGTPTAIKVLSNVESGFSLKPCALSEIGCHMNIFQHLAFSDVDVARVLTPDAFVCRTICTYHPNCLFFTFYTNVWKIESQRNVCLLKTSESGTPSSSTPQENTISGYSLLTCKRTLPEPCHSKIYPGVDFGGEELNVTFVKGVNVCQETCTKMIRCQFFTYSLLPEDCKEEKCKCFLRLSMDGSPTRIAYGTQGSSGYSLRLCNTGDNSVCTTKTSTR
# T4 sequence (P03952 391-638, chain 2 of 2): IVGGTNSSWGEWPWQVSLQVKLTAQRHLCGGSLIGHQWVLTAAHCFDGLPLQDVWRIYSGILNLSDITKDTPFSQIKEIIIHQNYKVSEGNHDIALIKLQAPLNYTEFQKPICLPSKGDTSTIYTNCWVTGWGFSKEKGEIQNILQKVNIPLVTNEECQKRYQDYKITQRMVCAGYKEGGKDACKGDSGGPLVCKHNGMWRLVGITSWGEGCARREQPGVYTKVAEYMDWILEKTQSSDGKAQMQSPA
# Test: as above
# Experimental: as §1
row,Ki [nM],Binder
1,0.2,B10
2,0.35,B12
3,0.25,B13
4,0.33,B11
5,0.34,B14

# Molecular target: T5, pKal catalytic domain Mutant 2 (human, UniProt P03952 391-638, limits assumed)
# T5 construct: domain: catalytic domain; Expressed in Pichia pastoris, purified by IMAC; not shown: His tag fusion
# Test: as above
# Experimental: as §1
row,Ki [nM],Binder
1,20,B10
2,47,B11

# Molecular target: T1, human plasma kallikrein
# Test: Ki,app, inhibition of human pKal enzyme activity
row,Ki [nM],Binder
1,0.06,B1
2,0.1,B2
3,0.3,B3
4,0.1,B4
5,0.1,B5
6,0.4,B6
7,0.2,B7
8,0.1,B8
9,0.3,B9

# Molecular target: T6, pKal catalytic domain Mutant 2 (human, UniProt P03952 391-638, limits assumed)
# T6 construct: domain: catalytic domain; Expressed in Pichia pastoris, purified by IMAC; not shown: His tag fusion
# Test: apparent Ki (Ki,app), enzyme inhibition, pKal catalytic domain Mutant 2
# Experimental: as §1
row,Ki [nM],Binder
1,5.9,B15
2,2.2,B16
3,2.5,B17
4,3.7,B18
5,20,B19
6,47,B20

# Molecular target: T7, wild type pKal catalytic domain (human, UniProt P03952 391-638, limits assumed)
# T7 construct: domain: catalytic domain; also called WT cat; Domain; not shown: His tag fusion
# Test: apparent Ki (Ki,app), enzyme inhibition, wild type pKal catalytic domain
# Experimental: as §1
row,Ki [nM],Binder
1,0.09,B15
2,0.3,B16
3,0.18,B17
4,0.16,B18
5,0.22,B19
6,0.13,B20

# Molecular target: T8, human plasma kallikrein (human, UniProt P03952 20-390; P03952 391-638)
# T8 construct: two disulfide linked chains; also called pKal; human pKal
# Test: Ki,app as an IgG, steady state enzyme kinetics, inhibition of human pKal
row,Ki [nM],Binder
1,0.2,B21
2,8.6,B22
3,1.3,B23
4,3.6,B24
5,0.9,B25
6,0.7,B26
7,2.1,B27
8,1.3,B28

# Molecular target: T9, pKal catalytic domain Mutant 1 (human, UniProt P03952 391-638, limits assumed)
# T9 construct: domain: catalytic domain; Expressed in Pichia pastoris, purified by IMAC; not shown: His tag fusion
# Test: apparent Ki (Ki,app), enzyme inhibition, pKal catalytic domain Mutant 1
# Experimental: as §1
row,Ki [nM],Binder
1,0.14,B15
2,0.4,B16
3,0.26,B17
4,0.23,B18
5,14,B19
6,4.7,B20
